From patent publication US20210024651A1

Tests used:
moFcgRIV [1] = experiment: BLI
moFcRn [2] = experiment: BLI
moFcgRIV [3] = experiment: -; reported
moFcgRIII = experiment: -; reported
moFcRn [4] = experiment: -; reported
moFcgRIIb = experiment: -; reported

Row | Substance | Kd (moFcgRIV [1]) [nM] | Kd (moFcRn [2]) [nM] | Kd (moFcgRIV [3]) [nM] | Kd (moFcgRIII) [nM] | Kd (moFcRn [4]) [nM] | Kd (moFcgRIIb) [nM]
1 | LJM716 hIgG1 | 701 | 12.8 | – | – | – | –
2 | Seribantumab hIgG2 | – | 6.69 | – | – | – | –
3 | hIgG1 | – | – | 280 | 9300 | 72 | 1100
4 | hIgG2 | – | – | – | 9700 | 63 | 7900
5 | hIgG3 | – | – | 170 | 1300 | 230 | 700
6 | hIgG4 | – | – | 26000 | 21000 | 116 | 11000
7 | mIgG1 | – | – | – | 3200 | 1160 | 301
8 | mIgG2a | – | – | 34.5 | 1460 | 490 | 2390
9 | mIgG2b | – | – | 59 | 1560 | 545 | 448
10 | mIgG3 | – | – | – | – | 140 | –
